Measurements as given in US20160040133A1 (published 2016).

Molecular target: T1, B2 C-9ASM (pAD-GAL4 fusion, yeast two-hybrid prey) (flock house virus)
T1 construct: Carries 9 alanine substitutions at the C-terminus; also called FHV B2 c-9ASM
Assay: yeast two-hybrid (Table 1: colony -, β-GAL White)

B1: PAZ domain of Arabidopsis Dicer-like protein 1 (DCL1) (pBD-GAL4 fusion, yeast two-hybrid bait) (other)
chain: MKLLSSIEQACDICRLKKLKCSKEKPKCAKCLKNNWECRYSPKTKRSPLTRAHLTEVESRLERLEQLFLLIFPREDLDMILKMDSLQDIKALLTGLFVQDNVNKDAVTDRLASVETDMPLTLRQHRISATSSSEESSNKGQRQLTVSEVEEDLSKGKLMMADGCMVAEDLIGKIVTAAHSGKRFYVDSICYDMSAETSFPRKEGYLGPLEYNTYADYYKQKYGVDLNCKQQPLIKGRGVSYCKNLLSPRFEQSGESETVLDKTYYVFLPPELCVVHP
notes: domain: BD;domain: PAZ domain; PAZ domain amplified by PCR and inserted into SalI and PstI digested pBD-GAL4 cam; also called DCL1-PAZ; PAZ domain of DCL1
B1: no binding.
